Each block holds one binder with its values, some of them ahead of it.
Columns and labels:
[1] = biological target: T1, TGFβ1 (transforming growth factor β1) (UniProt P01137 279-390); assay: BioVeris ECL competition assay with a labeled competitor; legend: ++ = IC50 about 10 - 50 µM
[2] = biological target: T2, TNFα (tumor necrosis factor α) (UniProt P01375 77-233); assay: as above
[3] = biological target: T2, TNFα (tumor necrosis factor α); assay: BioVeris ECL competition assay with a labeled competitor; legend: + = IC50 about 50 - 250 µM
[4] = biological target: T3, VEGF (vascular endothelial growth factor) (UniProt P15692-4 27-191, limits assumed, biotin label (Example 5)); assay: BioVeris ECL competition assay with a labeled competitor; legend: ++ = IC50 about 10 - 50 µM
T3 sequence (P15692 other isoform, or with tags, fused parts or gaps limits assumed): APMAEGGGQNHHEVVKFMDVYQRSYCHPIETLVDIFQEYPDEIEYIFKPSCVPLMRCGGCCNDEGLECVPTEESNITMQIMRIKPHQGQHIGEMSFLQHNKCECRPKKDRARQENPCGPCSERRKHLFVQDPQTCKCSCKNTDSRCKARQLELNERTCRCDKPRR

[5] = biological target: T3, VEGF (vascular endothelial growth …); assay: BioVeris ECL competition assay with a labeled competitor; legend: +++ = IC50 about 2 - 10 µM
[6] = biological target: T2, TNFα (tumor necrosis factor α); assay: BioVeris ECL competition assay with a labeled competitor; negative control
[7] = biological target: T4, FGF-5 (fibroblast growth factor 5) (UniProt P12034 18-268, limits assumed); assay: BioVeris ECL competition assay with a labeled competitor; legend: ++ = IC50 about 10 - 50 µM
T4 sequence (looked up): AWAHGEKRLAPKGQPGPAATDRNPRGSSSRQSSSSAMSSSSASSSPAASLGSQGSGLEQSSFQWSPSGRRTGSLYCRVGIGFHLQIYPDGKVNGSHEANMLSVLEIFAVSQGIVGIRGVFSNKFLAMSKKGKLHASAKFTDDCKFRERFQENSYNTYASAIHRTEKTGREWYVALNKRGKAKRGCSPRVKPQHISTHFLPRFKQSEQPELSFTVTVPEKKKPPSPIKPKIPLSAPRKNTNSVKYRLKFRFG

[8] = biological target: T1, TGFβ1 (transforming growth factor β1); assay: BioVeris ECL competition assay with a labeled competitor; negative control

T2 sequence (P01375 77-233 limits assumed): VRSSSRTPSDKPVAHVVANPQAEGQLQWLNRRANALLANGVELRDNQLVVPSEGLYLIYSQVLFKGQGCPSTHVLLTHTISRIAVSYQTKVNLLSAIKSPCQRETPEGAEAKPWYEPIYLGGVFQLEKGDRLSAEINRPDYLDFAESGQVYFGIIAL
T1 sequence (P01137 279-390 limits assumed): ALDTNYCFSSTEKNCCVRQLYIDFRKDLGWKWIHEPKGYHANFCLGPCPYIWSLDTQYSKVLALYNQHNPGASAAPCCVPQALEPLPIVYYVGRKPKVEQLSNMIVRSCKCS

B1: PEN3-Q-BBIt-TGF (BBIt-A13I-L29P-F50T-V52A with the TGFβ1 binding peptide PEN3 PENINVLP) (designed binder)
chain: DPDDESSKPCCDQCICTKSNPPQCRCSDMRPNSCHSACKSCACPENINVLPCTCADITDFCYEPCKPSE
notes: also called PEN3-Q-BBIt-TGFβ1; BBIt-PEN3-Q-A13I-L29P-F50T-V52A
IC50 [1]: 10 to 50 µM

B2: BBIt-TNF-T1 (BBIt-TNFα-T1-A13I-S25R-M27A-L29P-S31A-F50K-V52T, peptide RYWQDIP) (designed binder)
chain: DPDDESSKPCCDQCICTKSNPPQCRCRDARPNACHSACKSCACRYWQDIPCKCTDITDFCYEPCKPSE
IC50 [2]: 10 to 50 µM

B3: BBIt-TNF-T3 (BBIt-TNFα-T3-A13I-S25R-M27A-L29P-S31A-F50K-V52T, peptide DMIMVSI) (designed binder)
chain: DPDDESSKPCCDQCICTKSNPPQCRCRDARPNACHSACKSCACDMIMVSICKCTDITDFCYEPCKPSE
notes: the listing entry must be checked
IC50 [3]: 50 to 250 µM

B4: BBIt-TNF-T2 (BBIt-TNFα-T2-A13I-S25R-M27A-L29P-S31A-F50K-V52T, peptide APEPILA) (designed binder)
chain: DPDDESSKPCCDQCICTKSNPPQCRCRDARPNACHSACKSCACAPEPILACKCTDITDFCYEPCKPSE
IC50 [3]: 50 to 250 µM

B5: BBIt-AV-V5 (BBIt-VEGF-V5-A13I-S25R-M27A-L29P-S31A-F50K-V52T, peptide KPSSASS) (designed binder)
chain: DPDDESSKPCCDQCICTKSNPPQCRCRDARPNACHSACKSCACKPSSASSCKCTDITDFCYEPCKPSE
IC50 [4]: 10 to 50 µM

B9: BBIt-AV-V1 (BBIt-VEGF-V1-A13I-S25R-M27A-L29P-S31A-F50K-V52T, peptide SKHSQIT) (designed binder)
chain: DPDDESSKPCCDQCICTKSNPPQCRCRDARPNACHSACKSCACSKHSQITCKCTDITDFCYEPCKPSE
IC50 [6]: > 250 µM | IC50 [4]: 10 to 50 µM

B10: BBIt-AV-V3 (BBIt-VEGF-V3-A13I-S25R-M27A-L29P-S31A-F50K-V52T, peptide RPTGHSL) (designed binder)
chain: DPDDESSKPCCDQCICTKSNPPQCRCRDARPNACHSACKSCACRPTGHSLCKCTDITDFCYEPCKPSE
IC50 [4]: 10 to 50 µM

B12: MM007-Q-BBIt-FGF-5 (BBIt-A13I-L29P-F50T-V52A with the FGF-5 binding peptide MM007 RTQPYPL) (designed binder)
chain: DPDDESSKPCCDQCICTKSNPPQCRCSDMRPNSCHSACKSCACRTQPYPLCTCADITDFCYEPCKPSE
notes: also called BBIt-MM007-Q-A13I-L29P-F50T-V52A
IC50 [7]: 10 to 50 µM

B14: FGFps2-Q-BBIt-FGF-5 (BBIt-A13I-L29P-F50T-V52A with the FGF-5 binding peptide FGFps2 TWIDSTP) (designed binder)
chain: DPDDESSKPCCDQCICTKSNPPQCRCSDMRPNSCHSACKSCACTWIDSTPCTCADITDFCYEPCKPSE
notes: also called BBIt-FGFps2-Q-A13I-L29P-F50T-V52A
IC50 [8]: > 250 µM | IC50 [7]: 10 to 50 µM

The remaining lines, values ahead:

IC50 [5]: 2 to 10 µM
B6: BBIt-AV-V4 (BBIt-VEGF-V4-A13I-S25R-M27A-L29P-S31A-F50K-V52T, peptide KHSAKAE) (designed binder)
chain: DPDDESSKPCCDQCICTKSNPPQCRCRDARPNACHSACKSCACKHSAKAECKCTDITDFCYEPCKPSE

IC50 [5]: 2 to 10 µM
B7: BBIt-AV-V6 (BBIt-VEGF-V6-A13I-S25R-M27A-L29P-S31A-F50K-V52T, peptide PVTKRVH) (designed binder)
chain: DPDDESSKPCCDQCICTKSNPPQCRCRDARPNACHSACKSCACPVTKRVHCKCTDITDFCYEPCKPSE

IC50 [5]: 2 to 10 µM
B8: BBIt-AV-V2 (BBIt-VEGF-V2-A13I-S25R-M27A-L29P-S31A-F50K-V52T, peptide KTNPSGS) (designed binder)
chain: DPDDESSKPCCDQCICTKSNPPQCRCRDARPNACHSACKSCACKTNPSGSCKCTDITDFCYEPCKPSE

IC50 [5]: 2 to 10 µM
B11: VegKD-Q (BBIt-A13I-S25K-L29P-V52K with the VEGF-binding peptide VegKD KYDLYWW) (designed binder)
chain: DPDDESSKPCCDQCICTKSNPPQCRCKDMRPNSCHSACKSCICKYDLYWWCFCKDITDFCYEPCKPSE

IC50 [1]: 10 to 50 µM
B13: MM021W-Q-BBIt-TGF (BBIt-A13I-L29P-F50T-V52A with the TGFβ1 binding peptide MM021W KHNVDWL) (designed binder)
chain: DPDDESSKPCCDQCICTKSNPPQCRCSDMRPNSCHSACKSCACKHNVDWLCTCADITDFCYEPCKPSE
notes: also called MM021W-Q-BBIt-TGFβ1; BBIt-MM021W-Q-A13I-L29P-F50T-V52A
